Results on five molecules are retold here after patent EP3470429A1 (Numab Innovation AG, dated 2019).

Assay [1] has as its target T1, human PD-L1 expressed on cells (human, UniProt Q9NZQ7 19-290). The assay is described as follows: cell-based or functional assay.
Assay [2] addresses T1, human PD-L1 expressed on cells. The experiment in a line: cell-based or functional assay. This is another data set of the same source.
Assay [3] has the same target. The assay is described as follows: cell-based or functional assay. This is another data set of the same source.
Assay [4] concerns the target human CD137-Fc chimeric protein (human) (UniProt Q07011). The experiment in a line: SPR Biacore T200, CD137-Fc captured by anti-human Fc. (In SPR one partner is held on a chip, and binding of the other changes the refractive index at the surface.)
In assay [5] the target is T2, human PD-L1-Fc chimeric protein (human, UniProt Q9NZQ7 19-238).
T2 construct: not shown: Fc part, captured by an anti-human IgG Fc antibody
The experiment in a line: SPR Biacore T200, PD-L1-Fc captured by anti-human Fc.

Assay [6] deals with T1, human PD-L1 expressed on cells. The assay is described as follows: cell-based or functional assay. The source holds these as a separate data set.
The target in the next assay is T3, mouse serum albumin (mouse, UniProt P07724 25-608).
T3 construct: also called MSA
T3 sequence (P07724 25-608 limits assumed): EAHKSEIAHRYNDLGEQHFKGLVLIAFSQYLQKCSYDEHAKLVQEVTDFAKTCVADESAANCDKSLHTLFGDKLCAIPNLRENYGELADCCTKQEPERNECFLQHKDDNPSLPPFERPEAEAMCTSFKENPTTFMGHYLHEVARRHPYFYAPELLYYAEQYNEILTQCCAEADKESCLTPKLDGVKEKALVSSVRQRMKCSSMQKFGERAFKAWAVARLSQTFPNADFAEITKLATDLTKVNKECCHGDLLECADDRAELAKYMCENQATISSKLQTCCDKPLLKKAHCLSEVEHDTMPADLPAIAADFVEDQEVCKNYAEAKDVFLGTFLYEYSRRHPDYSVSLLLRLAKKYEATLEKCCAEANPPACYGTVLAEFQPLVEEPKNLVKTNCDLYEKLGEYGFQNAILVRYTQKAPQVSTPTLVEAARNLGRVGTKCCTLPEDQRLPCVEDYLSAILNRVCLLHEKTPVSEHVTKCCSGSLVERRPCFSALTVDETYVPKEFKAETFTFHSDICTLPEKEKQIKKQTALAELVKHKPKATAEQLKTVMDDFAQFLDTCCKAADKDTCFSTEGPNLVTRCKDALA
The assay is described as follows: assay not given.

A further assay addresses T4, human serum albumin (human, UniProt P02768 25-609).
T4 construct: also called HSA; human SA
The assay is described as follows: SPR Biacore T200, SA amine-coupled to CM5 chip, pH 5.5.

In assay [7] the target is T5, recombinant human PDL1 extracellular domain (human, UniProt Q9NZQ7 19-238).
T5 construct: also called hPDL1; hPDL1 ECD
The experiment in a line: competition ELISA, PD-1 coated, biotinylated PD-L1 in solution, with HSA. (In an ELISA, binding on a coated surface is turned into a signal by an enzyme label.)

Chain of human CD137-Fc chimeric protein (human) (Q07011 24-186 limits assumed, change not shown): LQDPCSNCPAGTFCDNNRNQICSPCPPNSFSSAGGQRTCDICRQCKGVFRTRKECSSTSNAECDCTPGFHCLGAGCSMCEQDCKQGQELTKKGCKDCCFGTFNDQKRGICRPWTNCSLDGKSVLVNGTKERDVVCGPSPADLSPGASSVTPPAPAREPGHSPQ

B1: PRO885 (bispecific antibody)
chain: DIQMTQSPSSLSASVGDRVTITCQASQSINDYLAWYQQKPGKAPKLLIYKASTLASGVPSRFSGSGSGTDFTLTISSLQPEDFATYYCQQGYIITDIDNVFGTGTKVTVLGGGGGSQVQLQESGPGLVKPSETLSLTCKVSGFSFSNSYWICWIRQPPGKGLEWIGCTFVGSSDSTYYANWAKGRVTISVDSSKNQFSLKLSSVTAADTAVYYCARHPSDAVYGYANNLWGQGTLVTVSSGGGGSGGGGSGGGGSGGGGSIQMTQSPSSLSASVGDRVTITCQASQSINNVLAWYQQKPGKAPKLLIYRASTLASGVPSRFSGSGSGTDFTLTISSLQPEDFATYYCQSSYGNYGDFGTGTKVTVLGGGGGSQVQLQESGPGLVKPSETLSLTCKVSGFSFSSGYDMCWIRQPPGKGLEWIGCVVAGSVDITYYASWAKGRVTISVDSSKNQFSLKLSSVTAADTAVYYCARKDAYSDAFNLWGQGTLVTVSS
Turning to B1, the “IC50 (ng/ml), NF-AT Potency assay” value in assay [1] turned out to be 137 ng/mL. Further, in assay [2], the “EC50 (ng/ml) of IL-2 secretion, PBMC with CHO cells expressing PD-L1; 1 ug/ml anti-CD3, 50000 CHO cells/well” value was 12.8 ng/mL; the “EC50 (ng/ml) of IL-2 secretion, PBMC with CHO cells expressing PD-L1; 1 ug/ml anti-CD3, 100000 CHO cells/well” value came out at 86.2 ng/mL; the “EC50 (ng/ml) of IL-2 secretion, PBMC with CHO cells expressing PD-L1; 1 ug/ml anti-CD3, 200000 CHO cells/well” value worked out at 80.6 ng/mL; the “EC50 (ng/ml) of IL-2 secretion, PBMC with CHO cells expressing PD-L1; 2 ug/ml anti-CD3, 50000 CHO cells/well” value was determined as 52 ng/mL. Besides, in assay [2], the “EC50 (ng/ml) of IL-2 secretion, PBMC with CHO cells expressing PD-L1; 2 ug/ml anti-CD3, 100000 CHO cells/well” value was 41.9 ng/mL and the “EC50 (ng/ml) of IL-2 secretion, PBMC with CHO cells expressing PD-L1; 2 ug/ml anti-CD3, 200000 CHO cells/well” value was 30.1 ng/mL. In addition, the “EC50 in ng/ml of IL-2 secretion, PBMC assay using SEA stimulation” value in assay [3] came out at 39.9 ng/mL.

B2: PRO1124 (bispecific antibody)
chain: DIQMTQSPSSLSASVGDRVTITCQASQSINDYLAWYQQKPGKAPKLLIYKASTLASGVPSRFSGSGSGTDFTLTISSLQPEDFATYYCQQGYIITDIDNVFGTGTKVTVLGGGGGSQVQLQESGPGLVKPSETLSLTCKASGFSFSNSYWICWVRQPPGKGLEWIGCTFVGSSDSTYYANWAKGRVTISKDSSKNQVSLKLSSVTAADTAVYFCARHPSDAVYGYANNLWGQGTLVTVSSGGGGSGGGGSGGGGSGGGGSLQMTQSPSSLSASVGDRVTITCQASQSINNVLAWYQQKPGKPPKLLIYRASTLASGVPSRFSGSGSGTDFTLTISSLQPEDFATYYCQSSYGNYGDFGTGTKVTVLGGGGGSQVQLQESGPGLVKPSETLSLTCKVSGFSFSSGYDMCWIRQPPGKGLEWIGCVVAGSVDITYYASWAKGRVTISVDSSKNQFSLKLSSVTAADTAVYYCARKDAYSDAFNLWGQGTLVTVSS
notes: also called 38-02-A04 sc06 Full scDb-i/33_03_G02 sc01 scDb-o
Consider B2, for which the fold improvement of affinity compared to PRO885 in assay [4] was above 200 fold. Besides, the binding result in [5] was “binds”.

B3: PRO1126 (bispecific antibody)
chain: DFQLTQSPSSLSASVGDRVTITCQASQSINDYLAWYQQKPGKSPKLLIYKASTLASGVPSRFSGSGSGTDFTLTISSLQPEDFATYYCQQGYIITDIDNVFGTGTKVTVLGGGGGSQVQLQESGPGLVKPSETLSLTCKVSGFSFSNSYWICWIRQPPGKGLEWIGCTFVGSSDSTYYANWAKGRVTISVDSSKNQFSLKLSSVTAADTAVYYCARHPSDAVYGYANNLWGQGTLVTVSSGGGGSGGGGSGGGGSGGGGSIQMTQSPSSLSASVGDRVTITCQASQSINNVLAWYQQKPGKAPKLLIYRASTLASGVPSRFSGSGSGTDFTLTISSLQPEDFATYYCQSSYGNYGDFGTGTKVTVLGGGGGSQSQLQESGPGLVKPSETLSLTCKASGFSFSSGYDMCWVRQPPGKGLEWIACVVAGSVDITYYASWAKGRVTISKDSSKNQVSLKLSSVTAADTAVYFCARKDAYSDAFNLWGQGTLVTVSS
As for B3, in assay [6], the “IC50, NFAT reporter gene assay” value was found to be 0.0481 µg/mL and the “fold improvement of neutralization potency against PRO885” value amounted to 3 fold. In addition, the fold improvement in affinity compared to the CDR graft (PRO885) in assay [5] worked out at 20 fold.

B4: PRO997 (scFv)
scFv: DIQMTQSPSSLSASVGDRVTITCQASQSIGTYLAWYQQKPGKAPKLLIYRAFILASGVPSRFSGSGSGTDFTLTISSLQPEDFATYYCQSNFYSDSTTIGPNAFGTGTKVTVLGGGGGSGGGGSGGGGSGGGGSQVQLQESGPGLVKPSETLSLTCKVSGFSFNSDYWIYWIRQPPGKGLEWIGSIYGGSSGNTQYASWAQGRVTISVDSSKNQFSLKLSSVTAADTAVYYCARGYVDYGGATDLWGQGTLVTVSS
As to B4, the “IC50 (ng/ml), NF-AT Potency assay” value in assay [1] worked out at 11.1 ng/mL. The “EC50 in ng/ml of IL-2 secretion, PBMC assay using SEA stimulation” value in assay [3] came out at 40.9 ng/mL.

B5: PRO1057 (other)
chain: DIQMTQSPSSLSASVGDRVTITCQASQSINDYLAWYQQKPGKAPKLLIYKASTLASGVPSRFSGSGSGTDFTLTISSLQPEDFATYYCQQGYIITDIDNVFGTGTKVTVLGGGGGSQVQLQESGPGLVKPSETLSLTCKVSGFSFSNSYWICWIRQPPGKGLEWIGCTFVGSSDSTYYANWAKGRVTISVDSSKNQFSLKLSSVTAADTAVYYCARHPSDAVYGYANNLWGQGTLVTVSSGGGGSGGGGSGGGGSGGGGSIQMTQSPSSLSASVGDRVTITCQASQSINNVLAWYQQKPGKAPKLLIYRASTLASGVPSRFSGSGSGTDFTLTISSLQPEDFATYYCQSSYGNYGDFGTGTKVTVLGGGGGSQVQLQESGPGLVKPSETLSLTCKVSGFSFSSGYDMCWIRQPPGKGLEWIGCVVAGSVDITYYASWAKGRVTISVDSSKNQFSLKLSSVTAADTAVYYCARKDAYSDAFNLWGQGTLVTVSSGGGGSGGGGSVVMTQSPSSLSASVGDRVTITCQASQIISSRSAWYQQKPGQPPKLLIYQASKLASGVPSRFSGSGSGTDFTLTISSLQPEDFATYYCQCTYIDSNFGAFGGGTKLTVLGGGGGSGGGGSGGGGSGGGGSEVQLVESGGGLVQPGGSLRLSCAASGFSFSSSYWICWVRQAPGKGLEWVGCVFTGDGTTYYASWAKGRFTISRDNSKNTVYLQMNSLRAEDTATYFCARPVSVYYYGMDLWGQGTLVTVSS
notes: also called 38_02_A04 sc01 scDb-i/33-03-G02 sc01 scDb-o/mxr HSA (23-13-A01-sc03, sk17sh4)
On to B5, for which the “IC50 (ng/ml), NF-AT Potency assay, with HSA” value in [1] came to 665 ng/mL. The binding result with mouse serum albumin and in the assay with human serum albumin was “binds” each time. Further, the “fold higher IC50 in presence of human serum albumin” value in assay [7] is around 2 fold.
